# Reference: the supplement of paper PMC11865577
# Tests used:
# Assay in all cases: pull-down binding Z-score (relative to library population); higher = stronger binding
# [1] = test system: G-clamp-N3 (biotin conjugate); conditions: RNA library: Library-1 (pre-miRNA loops + repeats)
# Method in brief: (§1)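 A heat-folded, dye-end-labelled (Cy5 or Cy3) RNA library (1 μg, phosphate/NaCl/KCl buffer) was exposed for 60 min at 25 °C to streptavidin beads holding 100 pmol of biotin-conjugated small molecule. RNA retained on the beads was eluted in hot SDS and hybridised to a DNA barcode microarray for 20 h at 55.5 °C. Binding scores were Z-scores against the library mean and standard deviation, calculated after subtracting beads alone and taking trimmed means of replicate probes.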
# [2] = test system: TO-3-N3-2 (biotin conjugate); conditions: RNA library: Library-2
# Method in brief: as §1
# [3] = test system: TO-N3-2 (biotin conjugate); conditions: RNA library: Library-2
# Method in brief: as §1
# [4] = test system: TO-3-N3 (biotin conjugate); conditions: RNA library: Library-2
# Method in brief: as §1
# TO-N3 (biotin conjugate) = conditions: RNA library: Library-2
# Method in brief: as §1
Sequence,pull-down binding Z-score [1],pull-down binding Z-score [2],pull-down binding Z-score [3],pull-down binding Z-score [4],pull-down binding Z-score (TO-N3 (biotin conjugate))
AGCCUUCUAUUAUGCCCAGACAGGGCCACCAGAGGGCU [hsa-mir-4448],-0.731,-0.619,-0.254,-0.471,-0.746
GCAGAGAAGACAGUGAGCUUGCCAGUUCUGGUUUCCAACACUUCCUUUCCUGCG [hsa-mir-3911],-1.12,0.236,1.3,0.56,0.975
CCUGACAGACAGCCUGAUAGACAGG [hsa-mir-4661],-0.998,0.168,0.908,2,1.96
UACAAUUUUUUUUUUUUUAAAUUUUA [hsa-mir-1303],0.8,0.111,-1.17,-0.51,-0.893
GGGCAUUCCGGAUAGGCCGAGAAAGUGUUG [hsa-mir-6723],0.79,0.568,1.42,1.45,1.67
UGGCAAAGGGGUAGCUAAACAAUCUAUGUCUUUGCCA [hsa-mir-3119-1],1.24,0.00332,-0.555,-0.367,-0.525
GGGGUGGCUGCGGGCCUUCUGAAGGUCUCCC [hsa-mir-662],0.76,0.448,1.24,0.427,0.946
UGAGACCUGGUGCAGAACGGGAAGGCGA [hsa-mir-551b],1.4,0.479,1.76,0.308,1.23
GGGCAGGGAGGGCAGGGCAGGCUCUGGGGUGGGGGGUCUGUGAGUCAGCCACGGCUC [hsa-mir-4516],2.89,7.72,4.69,6.78,6.16
CAGUGGUGCCAUCUCCCCUG [hsa-mir-5008],-1.49,-0.353,0.471,-0.377,-0.122
UCUGUUGUCUGAAAGAAAACA [hsa-mir-518b_518c],-0.569,0.0546,0.0545,-0.441,-0.285
GGCAUCAGAGGACAGCCGCCUGGUGCC [hsa-mir-4641],0.915,-0.0706,0.46,0.287,0.327
GAGAUGUGAUCCUGCCACAUCUC [hsa-mir-1304],0.421,-0.00394,-0.363,-0.09,-0.261
UUCACAGACUCUCCAAAAGUCUGAA [hsa-mir-4670],-1.33,-0.404,-0.533,-0.362,-0.543
UGUAAGUUUGCGAUGAGACACUACA [hsa-mir-144],-0.844,0.297,0.341,0.0531,0.405
GGAAUAGUGCUCCUGGUUGUUUC [hsa-mir-1180],0.894,-0.353,0.243,-0.548,-0.303
CCUCGAAGCUGCCUUUAGAAAUGAGG [hsa-mir-4496],-0.107,-0.192,0.142,-0.0169,0.176
AAGUCGAUUUCCAAAAGUGACUU [hsa-mir-3124],-0.161,-0.588,-1.11,-0.856,-1.11

Sequence,pull-down binding Z-score [1],pull-down binding Z-score [2],pull-down binding Z-score [3],pull-down binding Z-score [4],pull-down binding Z-score (TO-N3 (biotin conjugate))
GCAAGGUUGUUGGUGAUAUGGCUUCCUCUC [hsa-mir-4685],0.872,0.0915,0.538,-0.179,0.0508
UGUCUUUUUUUUUUUCUGAGACA [hsa-mir-1273c],-0.128,0.127,-1.36,-0.718,-1.21
GGCGCACAGCAGACCCUGCAAUCAUGCC [hsa-mir-3164],0.000458,0.119,0.621,0.966,1.03
GACACCUGGAUUCAGAGAACAUGUC [hsa-mir-1276],-0.716,-0.0538,0.137,-0.322,-0.156
GGGGAGAGGGACACGCCCUGGGCUCUGCCCAGGGUGCAGCCGGACUGACUGAG [hsa-mir-1225],1.58,1.1,1.99,1.55,1.95
AGGUAGUGUGAUUACCCAACCUACU [hsa-mir-93],0.373,-0.179,0.272,-0.148,0.0315
GGCAUCUAGGCUGUGCACAGUGACGCC [hsa-mir-4749],0.317,-0.421,0.336,-0.604,-0.376
GGGGUAGAAGCCACCCG [hsa-mir-4466],0.458,0.0166,1.46,0.149,0.492
AUCACUGAAAUAUGUCUGAGCUUCUGUU [hsa-mir-4501],-0.332,-0.00263,-0.302,-0.584,-0.658
CUUUCUGUUGUCUGAAAGAAAGGAAAG [hsa-mir-519a-1_519a-2],-0.55,-0.315,-0.239,-0.467,-0.572
AGGUUUGUGUCCAAUACAGUCCACACCU [hsa-mir-3200],-0.861,-0.367,-0.572,-0.745,-0.879
CAGAGUGUGCAUGGCAGGCU [hsa-mir-7156],-0.349,0.342,0.86,0.383,0.869
UCAUAAAUAUUUUAAGGAAUGACCCGGCCCUGGGG [hsa-mir-4285],-0.171,0.31,0.308,-0.306,-0.199
AGUCUCUGAAGAGAGCUGUGGACUGA [hsa-mir-6721],1.18,0.732,0.916,0.726,0.839
UUCUGUUGUCUGAAAGAAAAGAA [hsa-mir-1283-2],0.164,-0.145,-0.382,-0.517,-0.429
AUACUGGAGCAAUAGAUACAGUU [hsa-mir-3692],-0.223,-0.389,-0.353,-0.727,-0.663
GGGAGCGGCCCUCACAUUGAUGGCUCCU [hsa-mir-6727],1.42,-0.052,0.257,0.264,0.313
CCUGCUGUGUGAAACAAAAGUAAG [hsa-mir-302c],-1.08,0.0469,0.474,-0.422,0.103
